The EC50 is the midpoint of the concentration-response curve. As usually defined, the Kd is the constant that tells how readily two partners part at equilibrium. Broadly, the EC50 (read off the curve) is the concentration that produces a half-maximal response. Lower therefore signals greater potency.

The text below walks through data of patent publication US20100210517A1 (RAPTOR PHARMACEUTICAL, published 2010).

Experiment [1] concerns the target T1, recombinant human LRP1 ligand binding cluster II (amino acids 786-1165, C-terminal Fc) (human).
T1 construct: range 786-1165; Bought from R&D Systems, NS0-expressed; also called rhLRP1 cluster II; hrLRP1 cluster II
The experiment is described as follows: competition ELISA, inhibition of RAP d3 (2 nM) binding to coated LRP1 cluster II-Fc. How it is done:
(§1) Solid phase binding assays were performed using recombinant human LRP1 cluster II (amino acids 786-1165, with C-terminal Fc tag, 1 μg, R&D Systems, Minneapolis, Minn.) to coat Nunc MAXISORP™ 96-well plates in TBS pH 8 supplemented with 5 mM CaCl₂ (TBSC) overnight at 4° C. Data was generated by ELISA assay. Wells were washed with TBSC and blocked with TBSC containing 2% BSA. […] Control wells contained no added inhibitor. Wells were washed with TBS supplemented with 5 mM CaCl₂ and 0.05% Tween-20. Bound ligand was detected with either anti-S-peptide-HRP conjugate (Abcam, Cambridge, Mass.), anti-α-2-macroglobulin-HRP or anti-PAI-1-HRP. Excess HRP conjugate was removed and wells washed. Color was developed using TMB reagents (BioRad, Hercules, Calif.). Absorption at 450 nm was measured with a microplate spectrophotometer (Molecular Devices, Palo Alto, Calif.).
In general terms: In an ELISA, binding on a coated surface is turned into a signal by an enzyme label.

The target of experiment [2] is T1, recombinant human LRP1 ligand binding …. In words: competition ELISA on coated LRP1 cluster II-Fc; competitor called the heterologous ligand (FIG. 14C; the figure legend names uPA-PAI-1). The method, then:
as §1

The target is the same in experiment [3]. The experiment is described as follows: inhibitor pre-incubated with coated LRP1 cluster II-Fc, washed, then RAP d3 added; inhibition of RAP d3 binding. The method, then: as §1
Experiment [4] has the same target. The experiment is described as follows: solid-phase binding assay, receptor coated on plate, streptavidin-HRP detection, EDTA-subtracted. How it is done:
(§2) Solid phase binding assays were carried out as follows. Recombinant murine VLDLR ectodomain (aa 1-798, C-terminal hexahistidine, 1 μg) or rhLRP1 cluster II (aa 786-1165, C-terminal Fc, 1 μg) were bound to Nunc Maxisorp™ 96-well plates in TBS pH 8 supplemented with 5 mM CaCl₂ (TBSC) overnight at 4° C. Wells were washed with TBSC and then blocked with TBSC containing 2% BSA. Peptides were then incubated with the immobilized receptor at a range of concentrations for 2 hours in the above blocking buffer supplemented with 0.05% Tween-20 at room temperature. Identical binding reactions were done in the presence of 50 mM EDTA to provide a measure of non-specific binding. Control wells contained no added peptide. […] Excess streptavidin-HRP or primary antibody was removed and wells washed before incubation with the secondary antibody, when necessary, HRP-conjugated goat anti rabbit IgG (Bio-Rad). Color was developed using TMB reagents (BioRad). Absorption at 450 nm was measured with a microplate spectrophotometer (Molecular Devices). Absorption obtained in the presence of EDTA was subtracted from absorption obtained in the presence of calcium prior to analysis. Data were plotted and Kd values derived by non-linear regression with the assumption of single-site binding (GraphPad Prism).

The target in experiment [5] is T2, recombinant mouse VLDLR ectodomain (amino acids 1-798, C-terminal hexahistidine) (mouse, UniProt P98156 28-798).
T2 construct: range 1-798; Bought from R&D Systems, NS0-expressed; The printed range starts at 1 and so may count a signal peptide; also called rmVLDLR ectodomain; mVLDLR
T2 sequence (P98156 other isoform, or with tags, fused parts or gaps limits assumed, form in doubt): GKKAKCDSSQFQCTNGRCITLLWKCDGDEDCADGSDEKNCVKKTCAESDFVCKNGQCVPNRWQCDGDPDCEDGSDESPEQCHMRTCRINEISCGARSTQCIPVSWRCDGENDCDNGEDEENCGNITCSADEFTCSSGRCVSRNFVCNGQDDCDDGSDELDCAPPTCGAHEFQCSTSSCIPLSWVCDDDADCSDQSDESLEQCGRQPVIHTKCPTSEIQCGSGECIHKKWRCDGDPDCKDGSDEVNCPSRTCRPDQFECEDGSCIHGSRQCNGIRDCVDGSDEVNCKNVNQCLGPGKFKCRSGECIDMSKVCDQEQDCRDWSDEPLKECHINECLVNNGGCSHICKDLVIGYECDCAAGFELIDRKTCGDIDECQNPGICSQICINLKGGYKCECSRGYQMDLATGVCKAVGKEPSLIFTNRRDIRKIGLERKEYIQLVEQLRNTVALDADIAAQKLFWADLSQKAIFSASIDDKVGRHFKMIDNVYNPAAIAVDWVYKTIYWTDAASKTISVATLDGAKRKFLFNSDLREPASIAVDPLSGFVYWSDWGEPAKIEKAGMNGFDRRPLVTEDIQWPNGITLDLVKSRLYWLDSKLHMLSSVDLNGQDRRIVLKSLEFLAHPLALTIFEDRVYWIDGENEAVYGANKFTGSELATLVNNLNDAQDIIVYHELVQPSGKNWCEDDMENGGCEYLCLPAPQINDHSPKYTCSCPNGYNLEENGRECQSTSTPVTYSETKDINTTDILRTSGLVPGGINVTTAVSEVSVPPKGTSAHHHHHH
The description is as above. The method, then: as §2

In experiment [6] the target is T3, 8D6 CR12 (CR pair from FDC-8D6 antigen, CD320) (human, UniProt Q9NPF0 53-168).
T3 construct: also called FDC-8D6 antigen pair; target CR pair from FDC-8D6 antigen; not shown: N-terminal hexahistidine and S-peptide tags of pET30(+)a
T3 sequence (Q9NPF0 other isoform, or with tags, fused parts or gaps): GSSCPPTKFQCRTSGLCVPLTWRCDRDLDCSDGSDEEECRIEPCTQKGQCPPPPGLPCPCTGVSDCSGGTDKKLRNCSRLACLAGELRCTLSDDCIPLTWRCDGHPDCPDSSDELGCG
The experiment is described as follows: solid-phase assay on the coated FDC-8D6 antigen CR pair, relative binding.

The target in the next experiment is T4, MAT CR12 (human, UniProt Q9Y5Y6 452-524).
T4 construct: also called ST14 CR12; matriptase CR12
T4 sequence: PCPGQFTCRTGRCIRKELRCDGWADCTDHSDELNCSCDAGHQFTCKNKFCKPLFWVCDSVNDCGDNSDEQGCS
The experiment is described as follows: binding of truncated MatRAP1 forms to MAT CR12, relative signal under isomolar conditions. The method, then: (§3) Solid phase binding assays-Purified, refolded CR protein (1 μg) was bound to Nunc Maxisorp™ 96-well plates in TBS pH 8 supplemented with 5 mM CaCl₂ (TBSC) overnight at 4° C. Wells were washed with TBSC and then blocked with TBSC containing 2% bovine serum albumin (BSA). […] Control wells contained no added ligand. As an additional control, to determine whether the absence of calcium affected binding, 10 mM EGTA was included in the incubation medium for some samples. […] Excess primary antibody was removed and wells washed before incubation with the secondary antibody, HRP-conjugated goat anti rabbit IgG (Bio-Rad). After washing, TMB substrate solutions (Bio-Rad) were added to detect HRP. Color development was stopped with 1N HCl. Absorption at 450 nm was measured with a microplate spectrophotometer (Molecular Devices). Data were plotted and Kd values derived by non-linear regression with the assumption of single-site binding (GraphPad Prism).

The next experiment has as its target T5, LRP2 CR3536 (human, UniProt P98164 3882-3963).
T5 construct: domain: CR3536; not shown: N-terminal hexahistidine and S-peptide tags of pET30(+)a
In words: solid-phase assay on coated CR protein, each ligand at 80 nM, blank-corrected absorbance. How it is done: (§4) Samples were tested twice, in duplicate, and values combined. Means and standard deviations were then calculated. Blank values obtained from wells incubated in the absence of ligand were used to correct absorbance data.
as §3

The next experiment deals with T6, LRP2 CR2728 (human, UniProt P98164 3552-3631).
T6 construct: domain: CR2728; Its cloning is not described in the methods; not shown: N-terminal hexahistidine and S-peptide tags of pET30(+)a
T6 sequence (looked up): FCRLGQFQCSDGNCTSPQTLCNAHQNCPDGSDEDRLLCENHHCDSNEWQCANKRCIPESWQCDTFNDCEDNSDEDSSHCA
The experiment is described as above. How it is done: as §4, §3

The target of another experiment is T7, LRP2 CR89 (human, UniProt P98164 1025-1102).
T7 construct: domain: CR89; also called YVWR; L2 CR89; not shown: N-terminal hexahistidine and S-peptide tags of pET30(+)a
T7 sequence (P98164 1025-1102): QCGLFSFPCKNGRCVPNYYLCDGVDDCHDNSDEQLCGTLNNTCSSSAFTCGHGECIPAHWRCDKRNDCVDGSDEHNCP
The experiment is described as above. The method, then: as §4, §3

Another experiment has as its target T8, LRP2 CR34-36 (human, UniProt P98164 3841-3963).
T8 construct: domain: CR34-36; not shown: N-terminal hexahistidine and S-peptide tags of pET30(+)a
The experiment is described as above. The method, then:
as §4, §3

In the next experiment the target is T9, LRP2 CR3031 (human, UniProt P98164 3677-3755).
T9 construct: domain: CR3031; Its cloning is not described in the methods; not shown: N-terminal hexahistidine and S-peptide tags of pET30(+)a
T9 sequence (P98164 3677-3755): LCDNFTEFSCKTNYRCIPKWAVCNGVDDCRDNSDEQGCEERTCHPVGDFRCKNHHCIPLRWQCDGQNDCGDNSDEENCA
Described as above. The method, then:
as §4, §3

The target in experiment [7] is T3, 8D6 CR12 (CR pair from FDC-8D6 antigen, …). In words: solid-phase binding assay, CR protein coated on plate. The method, then:
Control wells contained no added ligand. As an additional control, to determine whether the absence of calcium affected binding, 10 mM EGTA was included in the incubation medium for some samples. […] Excess primary antibody was removed and wells washed before incubation with the secondary antibody, HRP-conjugated goat anti rabbit IgG (Bio-Rad). After washing, TMB substrate solutions (Bio-Rad) were added to detect HRP. Color development was stopped with 1N HCl. Absorption at 450 nm was measured with a microplate spectrophotometer (Molecular Devices). Data were plotted and Kd values derived by non-linear regression with the assumption of single-site binding (GraphPad Prism).

Positions count from the first letter of the chain named.

T1 sequence (Q07954 786-1165): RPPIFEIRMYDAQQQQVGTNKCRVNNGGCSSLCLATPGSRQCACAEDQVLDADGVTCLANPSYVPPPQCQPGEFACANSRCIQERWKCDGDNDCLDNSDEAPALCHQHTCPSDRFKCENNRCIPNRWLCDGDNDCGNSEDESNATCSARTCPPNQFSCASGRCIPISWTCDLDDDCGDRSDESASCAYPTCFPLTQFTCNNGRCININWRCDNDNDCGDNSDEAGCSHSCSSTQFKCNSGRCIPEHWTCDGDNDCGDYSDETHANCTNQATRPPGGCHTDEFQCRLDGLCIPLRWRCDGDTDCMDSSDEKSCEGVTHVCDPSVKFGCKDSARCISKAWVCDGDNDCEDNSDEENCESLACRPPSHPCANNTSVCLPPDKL
T5 sequence (P98164 3882-3963): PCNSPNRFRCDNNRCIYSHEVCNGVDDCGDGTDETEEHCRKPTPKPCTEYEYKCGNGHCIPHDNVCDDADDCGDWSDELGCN
T8 sequence (P98164 3841-3963): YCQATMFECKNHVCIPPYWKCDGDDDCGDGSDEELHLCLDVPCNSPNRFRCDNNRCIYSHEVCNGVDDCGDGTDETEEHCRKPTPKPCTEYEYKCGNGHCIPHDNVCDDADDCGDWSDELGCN

B1: mRAPc (peptide)
peptide: CGFREELKHFEAKIEKHNHYQKQLEIAHEKLRHAESVGDGERVSRSREKHALLEGRTKELGYTVKKHLQDLSGGC
modifications: N-terminal biotin-GGSGG; intramolecular disulfide between C241 and C315 (mature RAP numbering)
notes: Synthetic; also called mRAPc peptide; monomeric peptide
For B1, the figures for the EC50 in [1], in experiment [2] and in [3] were 32 nM, 7 nM and 17 nM, respectively. The results for the Kd in experiment [4] and in experiment [5] were 10 nM and 5 nM, respectively.

B2: tag-free RAP d3 peptide (amino acids 201-319 of mature human RAP, C-terminal cysteine linked to biotin) (ligand)
chain: LDRLRRVSHQGYSTEAEFEEPRVIDLWDLAQSANLTDKELEAFREELKHFEAKIEKHNHYQKQLEIAHEKLRHAESVGDGERVSRSREKHALLEGRTKELGYTVKKHLQDLSGRISRARC
modifications: C-terminal cysteine linked to maleimide-PEO2-biotin
notes: Bacterially expressed, from GeneScript; lacks HNEL; also called full-length RAP d3
Turning to B2, the Kd in experiment [4] was determined as 8 nM; in [5] it was 1 nM.

B3: 320RAP1 (full-length d3 variant) (ligand)
chain: LDRLRRVSHQGYSTEAEFEEPRVIDLWDLAQSANLTDKELEAFREELKHFEAKIESHNHYQKQLEIAHESMRHAESVGYGERMSRSREKHALLEGRTKELGYTVTMHLQDLSGRISRAR
notes: Selected by phage panning on the CR pair of FDC-8D6 antigen; not shown: N-terminal hexahistidine and S-peptide tags of pET30(+)a
For the molecule B3, the “EC50 (read off the curve)” value in [6] was about 7 nM.

B4: MatRAP1 d3 (ligand)
chain: B3 chain with E51G, S56R, S70W, M71L, Y79D, M83V, T105K, M106K
notes: Selected by phage panning on MAT CR23; also called RAP vMA; not shown: N-terminal hexahistidine and S-peptide tags of pET30(+)a
For the molecule B4, the “fnctn (relative binding signal under isomolar conditions)” value with MAT CR12 was determined as 0.22. For the same molecule, the binding result with LRP2 CR3536, with LRP2 CR2728, with LRP2 CR89, in the experiment with LRP2 CR34-36 and in the experiment with LRP2 CR3031 was “no binding (tested: 80 nM)” in each case.

B5: 320RAP1 truncated variant (identical truncations as MatRAP1, amino acids 243-313) (ligand)
chain: FREELKHFEAKIESHNHYQKQLEIAHESMRHAESVGYGERMSRSREKHALLEGRTKELGYTVTMHLQDLSG
notes: also called truncated form of 320RAP1; not shown: N-terminal hexahistidine and S-peptide tags of pET30(+)a
Take B5: in [7], the “fold improvement in affinity against the full-length variant” value is 3.5 fold.

B6: MatRAP2 d3 (ligand)
chain: LDRLRRVSHQGYSTEAEFEEPRVIDLWDLAQPANLTDKGLEAFREGLKHFLAKIEPHNHYQKQLETVREPLRYAESVGDGERVSRSHEKYALLEGRTRELGYTVKKHLQDLFGRISRAR
notes: Selected by phage panning on MAT CR34; also called RAP vMB; not shown: N-terminal hexahistidine and S-peptide tags of pET30(+)a
For B6, the binding result with LRP2 CR3536, in the experiment with LRP2 CR2728, in the experiment with LRP2 CR89, in the experiment with LRP2 CR34-36 and with LRP2 CR3031 was “no binding (tested: 80 nM)” throughout.
